The conditions of the series: Alicyclobacillus acidocaldarius subsp. acidocaldarius, pH 7.5, Phosphate 20 mM, reversible: Yes; for denaturant midpoint (higher = more stable): 20 °C.

Values joined by “and” are separate entries in the source; they are usually repeats but may differ in a detail not shown here. Equal values may be shown once.

With wild type (from UniProt Q7SIG1), the “denaturant midpoint (higher = more stable)” value (“denaturant midpoint” for short) (GdnHCl, CD) was 1.9 M and 2.2 M; the “denaturant midpoint” value (GdnHCl, Fluorescence) was 1.9 M and 2 M and 2.2 M; the “denaturant midpoint” value (Urea, CD) was 5.9 M and 4.6 M. The Tm runs as follows: (Thermal, CD) 91 °C and 86 °C; (Thermal, DSC) 86 °C. Also, the “unfolding enthalpy (van 't Hoff)” value is 105 kcal/mol and 122 kcal/mol and 62.1 kcal/mol (Thermal, CD); 127 kcal/mol and 83.7 kcal/mol (Thermal, DSC). For the same substance, the “heat capacity change of unfolding” value (Thermal, DSC) is 3.82 kcal/mol/K; the “heat capacity change of unfolding” value (Thermal, DSC, transition: 3) was 1.67 kcal/mol/K and 2.15 kcal/mol/K. Besides, the “unfolding enthalpy (calorimetric)” value (Thermal, DSC) is 265 kcal/mol and 179 kcal/mol.

The values are drawn from FireProtDB (doi:10.1016/j.bpc.2007.01.004).
